Laboratory results from patent publication US20220251236A1 (Boehringer Ingelheim, published 2022).

Columns and labels:
[1] = target: T1, Human DLL3-His (human, UniProt Q9NYJ7 27-492); assay: SPR (ProteOn XPR36), bispecific captured on protein A/G, hu DLL3 as analyte, Example 4B
T1 construct: also called huDLL3-His; hu DLL3
T1 sequence: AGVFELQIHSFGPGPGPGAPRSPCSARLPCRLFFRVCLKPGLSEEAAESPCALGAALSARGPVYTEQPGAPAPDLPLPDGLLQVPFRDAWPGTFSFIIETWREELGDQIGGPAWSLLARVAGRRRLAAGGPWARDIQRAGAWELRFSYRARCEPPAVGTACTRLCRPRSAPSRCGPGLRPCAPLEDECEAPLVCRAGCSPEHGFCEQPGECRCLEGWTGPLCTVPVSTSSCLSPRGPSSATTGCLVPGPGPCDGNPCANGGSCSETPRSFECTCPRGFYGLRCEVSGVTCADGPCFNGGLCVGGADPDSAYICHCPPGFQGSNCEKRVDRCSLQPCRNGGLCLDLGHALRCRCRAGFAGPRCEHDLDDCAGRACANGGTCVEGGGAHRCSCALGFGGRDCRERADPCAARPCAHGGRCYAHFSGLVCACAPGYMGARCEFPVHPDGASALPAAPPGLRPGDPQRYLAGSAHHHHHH
Procedure, shortened: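 Bispecific constructs captured on protein A/G for 200 s at 30 μl/min, baseline stabilized with PBS-T-EDTA. Human DLL3 analyte injected 300 s at 30 μl/min; dissociation followed for 1800 s.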

[2] = target: T2, EGF1+2; assay: flow cytometry on HEK293 cells expressing the DLL3 subdomain construct, PE anti-human secondary, control: secondary antibody only
T2 construct: also called Hu DLL3 EGF1+2 on HEK293 cells
T2 membrane-anchored DLL3 subdomain construct: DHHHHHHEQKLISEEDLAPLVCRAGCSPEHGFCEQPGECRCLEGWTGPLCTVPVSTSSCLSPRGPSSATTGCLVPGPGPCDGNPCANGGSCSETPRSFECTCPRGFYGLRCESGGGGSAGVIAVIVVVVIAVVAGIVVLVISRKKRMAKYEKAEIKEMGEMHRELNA
Procedure, shortened: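 Binders tested on HEK293 cells displaying the DLL3 subdomain construct; bound molecules detected by flow cytometry using PE-conjugated anti-human secondary antibody. Negative control: cells with secondary antibody only.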

B1: DLL3#17/CD3#1 (bispecific antibody, human IgG1, kappa, lambda, L234A L235A)
chain 1: DIQMTQSPASLAASVGETVTITCRASENIYYSLAWYQQKQGKSPQLLIYNTNSLEDGVPSRFSGSGSGTQYSMKINSMQPEDTATYFCKQAYDFPLTFGAGTKLELKRTVAAPSVFIFPPSDEQLKSGTASVVCLLNNFYPREAKVQWKVDNALQSGNSQESVTEQDSKDSTYSLSSTLTLSKADYEKHKVYACEVTHQGLSSPVTKSFNRGECGGGGSEGKSSGSGSESKSTEGKSSGSGSESKSTGGGGSQIQLQQSGPEVVKPGASVKISCKASGYTFISYYIHWVKQRPGQGLEWIGWIYPGDGSTNNNEKFKGKTTLTADKSSSTAYMLLSSLTSEDSAVYFCARGEGNAMDDWGQGTSVTVSSASTKGPSVFPLAPSSKSTSGGTAALGCLVKDYFPEPVTVSWNSGALTSGVHTFPAVLQSSGLYSLSSVVTVPSSSLGTQTYICNVNHKPSNTKVDKRVEPKSCDKTHTCPPCPAPEAAGGPSVFLFPPKPKDTLMISRTPEVTCVVVDVSHEDPEVKFNWYVDGVEVHNAKTKPREEQYNSTYRVVSVLTVLHQDWLNGKEYKCKVSNKALPAPIEKTISKAKGQPREPQVYTLPPSREEMTKNQVSLWCLVKGFYPSDIAVEWESNGQPENNYKTTPPVLDSDGSFFLYSKLTVDKSRWQQGNVFSCSVMHEALHNHYTQKSLSLSPG
chain 2: EAVVTQEPSLTVSPGGTVTLTCRSSTGAVTTSNYANWVQEKPGQLPRGLIGGTNKRAPWVPARFSGSLLGGKAALTLSGAQPEDEAEYFCALWYSNLWVFGGGTKLTVLGQPKAAPSVTLFPPSSEELQANKATLVCLISDFYPGAVKVAWKADGSPVNTGVETTTPSKQSNNKYAASSYLSLTPEQWKSHRSYSCQVTHEGSTVEKTVAPAECSGGGGSEGKSSGSGSESKSTEGKSSGSGSESKSTGGGGSEVQLVESGGGLVQPGGSLKLSCAASGFTFNTYAMNWVRQAPGKGLEWVARIRSKYNNYATYYADSVKDRFTISRDDSKNTAYLQMNNLKTEDTAVYYCVRHGNFGNSYVSWFAYWGQGTLVTVSAASTKGPSVFPLAPSSKSTSGGTAALGCLVKDYFPEPVTVSWNSGALTSGVHTFPAVLQSSGLYSLSSVVTVPSSSLGTQTYICNVNHKPSNTKVDKRVEPKSCDKTHTCPPCPAPEAAGGPSVFLFPPKPKDTLMISRTPEVTCVVVDVSHEDPEVKFNWYVDGVEVHNAKTKPREEQYNSTYRVVSVLTVLHQDWLNGKEYKCKVSNKALPAPIEKTISKAKGQPREPQVYTLPPSREEMTKNQVSLSCAVKGFYPSDIAVEWESNGQPENNYKTTPPVLDSDGSFFLVSKLTVDKSRWQQGNVFSCSVMHEALHNRFTQKSLSLSPG
notes: Heterodimer of one DLL3 chain and one CD3 chain (scFab-Fc, knob-in-hole)
Kd [1]: < 0.02 nM | binding result [2]: no binding (tested: 1.6 nM)
